From US20230050440A1 (Seagen, published 2023)
Where two headings read alike, the source gives them in different places.

T1: human TIGIT expressed on cells (human, UniProt Q495A1 22-244)
T1 construct: HEK 293 cells stably expressing human TIGIT, primary human T cells or Jurkat effector cells; the cell is named under assay; also called Human TIGIT HEK
T1 sequence: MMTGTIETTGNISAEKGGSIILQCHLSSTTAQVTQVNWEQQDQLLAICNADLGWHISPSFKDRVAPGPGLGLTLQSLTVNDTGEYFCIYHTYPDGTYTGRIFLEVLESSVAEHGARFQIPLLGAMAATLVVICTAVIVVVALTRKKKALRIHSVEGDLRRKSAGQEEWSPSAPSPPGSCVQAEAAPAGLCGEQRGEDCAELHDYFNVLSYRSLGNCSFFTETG

T2: monomeric human TIGIT (Sino Biological 10917-H08H) (human, UniProt Q495A1 22-138, biotinylated in the MSD-SET assay)
T2 construct: Bought protein; also called Human TIGIT monomer; Human TIGIT-His; not shown: His tag
T2 sequence: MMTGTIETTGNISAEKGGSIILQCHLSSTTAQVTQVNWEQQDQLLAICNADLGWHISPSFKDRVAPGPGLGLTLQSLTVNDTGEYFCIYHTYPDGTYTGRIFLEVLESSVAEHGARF

T3: recombinant dimeric human TIGIT-Fc (Acro Biosystems TIT-H5254) (human, UniProt Q495A1 22-141)
T3 construct: Bought protein; also called hTIGIT-Fc; not shown: Fc part of the bought fusion protein
T3 sequence: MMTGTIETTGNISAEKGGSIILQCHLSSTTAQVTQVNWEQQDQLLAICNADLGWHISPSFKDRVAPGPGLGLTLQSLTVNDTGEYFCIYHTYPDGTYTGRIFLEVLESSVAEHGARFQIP

T4: murine FcγRIV expressed on CHO cells (mouse, UniProt A0A0B4J1G0 21-249)
T4 construct: also called mCD16 (the murine form of FcγRIVa)
T4 sequence: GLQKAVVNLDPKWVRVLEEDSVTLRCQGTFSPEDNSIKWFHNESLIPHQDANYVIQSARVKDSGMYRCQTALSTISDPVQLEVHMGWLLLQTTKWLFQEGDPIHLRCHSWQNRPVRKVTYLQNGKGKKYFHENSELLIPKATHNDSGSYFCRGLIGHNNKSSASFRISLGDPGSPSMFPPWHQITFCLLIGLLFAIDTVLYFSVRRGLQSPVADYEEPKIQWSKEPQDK


Legend:
[1] = target: T5, cyno TIGIT-Fc (cynomolgus monkey); experiment: BLI (ForteBio), IgG on sensor, avid
T5 construct: not shown: Fc part

[2] = target: T6, cynomolgus monkey TIGIT expressed on cells (cynomolgus monkey); experiment: flow cytometry titration, HEK 293 cells expressing cynomolgus TIGIT
T6 construct: HEK 293 cells stably expressing cynomolgus monkey TIGIT or cynomolgus T cells; also called Cyno TIGIT HEK
Experimental: (§1) HEK 293 cells were engineered to stably express high levels of human, mouse or cynomolgus monkey TIGIT by lentiviral transduction. […] Samples were analyzed on a CytoFLEX flow cytometer. Median fluorescence intensity of the FSC/SSC gated population was determined for each antibody concentration. NonLinear regression of Log(X) transformed data was used to generate EC50 values in GraphPad Prism 6.

[3] = target: T1, human TIGIT expressed on cells; experiment: flow cytometry titration, HEK 293 cells expressing human TIGIT
Experimental: as §1

[4] = target: T2, monomeric human TIGIT (Sino Biological …); experiment: BLI (ForteBio), IgG on sensor, monovalent
Experimental: (§2) Briefly, ForteBio affinity measurements were performed by loading IgGs on-line onto AHQ sensors. Sensors were equilibrated off-line in assay buffer for 30 minutes and then monitored on-line for 60 seconds for baseline establishment. Sensors with loaded IgGs were exposed to 100 nM antigen (dimeric Fc-fusion antigen or monomeric antigen) for 3 minutes, and afterwards were transferred to assay buffer for 3 minutes for off-rate measurement. All binding and dissociation kinetics were analyzed using the 1:1 binding model.
The optimized antibodies were also tested for ligand blocking in a CD155 ligand competition assay, and for binding to human TIGIT HEK, cyno TIGIT HEK, mouse TIGIT HEK, and parental HEK cell lines, as described above.

[5] = target: T3, recombinant dimeric human TIGIT-Fc …; experiment: BLI (ForteBio Octet RED384), IgG on AHQ sensor, 100 nM antigen, 1:1 model
Experimental: as §2

[6] = target: T2, monomeric human TIGIT (Sino Biological …); experiment: as above
Experimental: as §2

[7] = target: T6, cynomolgus monkey TIGIT expressed on …; experiment: flow cytometry on HEK 293 cells expressing the target, MFI over parental HEK 293;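 also: bound antibody detected with PE-labelled anti-human IgG, 15 min on ice. FOB equals median fluorescence on TIGIT-positive cells divided by that on target-negative cells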
Experimental: (§3) HEK 293 cells were engineered to stably express high levels of human, mouse or cynomolgus monkey TIGIT by lentiviral transduction. […] Cells were then washed twice with wash buffer and incubated with anti-human IgG conjugated to PE for 15 minutes on ice. Cells were then washed twice with wash buffer and analyzed by flow cytometry on a FACS Canto II instrument (BD Biosciences). Fold over background (FOB) was calculated as the median fluorescence intensity (MFI) of the anti-TIGIT clone bound to target-positive cells divided by the MFI of the anti-TIGIT clone bound to target-negative cells.

[8] = target: T1, human TIGIT expressed on cells; experiment: as above
Experimental: as §3

[9] = target: T1, human TIGIT expressed on cells; experiment: flow cytometry competition with human CD112-Fc on 293-hTIGIT cells
[10] = target: T1, human TIGIT expressed on cells; experiment: flow cytometry competition with hCD112-Fc-AlexaFluor647 on 293-hTIGIT cells; the axis 'Percent Blockade' falls as ligand signal is lost
Experimental: (§4) Samples were analyzed on a CytoFLEX flow cytometer. Median fluorescence intensity of the FSC/SSC gated population was determined for each antibody concentration. Percent blockade was calculated relative to the MFI of the no antibody control. NonLinear regression of Log(X) transformed data was performed in GraphPad Prism 6.

[11] = target: T1, human TIGIT expressed on cells; experiment: flow cytometry titration, HEK 293 cells expressing human TIGIT; remark: listed apart in the source
[12] = target: T1, human TIGIT expressed on cells; experiment: flow cytometry competition with human CD155-Fc on 293-hTIGIT cells
[13] = target: T1, human TIGIT expressed on cells; experiment: flow cytometry competition with hCD155-Fc-AlexaFluor647 on 293-hTIGIT cells; the axis 'Percent Blockade' falls as ligand signal is lost
Experimental: as §4

[14] = target: T6, cynomolgus monkey TIGIT expressed on …; experiment: flow cytometry titration, HEK 293 cells expressing cynomolgus TIGIT; remark: listed apart in the source
[15] = target: T4, murine FcγRIV expressed on CHO cells; experiment: flow cytometry on CHO cells expressing mCD16 (murine FcγRIV), anti-mouse IgG FITC
Experimental: To assess the extent of altered FcγRIV binding, antibody affinity to FcγRIV expressed on CHO cells was determined by FACS using anti-mouse IgG FITC.

T6 sequence (chain, as listed by the source limits assumed): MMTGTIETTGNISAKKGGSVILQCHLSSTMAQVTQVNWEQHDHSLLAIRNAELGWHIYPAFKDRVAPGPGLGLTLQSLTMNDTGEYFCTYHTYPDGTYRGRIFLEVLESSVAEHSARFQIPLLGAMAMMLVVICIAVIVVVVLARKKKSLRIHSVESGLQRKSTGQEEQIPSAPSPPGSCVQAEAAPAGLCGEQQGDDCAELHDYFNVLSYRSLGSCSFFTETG
T5 sequence (chain, as listed by the source limits assumed): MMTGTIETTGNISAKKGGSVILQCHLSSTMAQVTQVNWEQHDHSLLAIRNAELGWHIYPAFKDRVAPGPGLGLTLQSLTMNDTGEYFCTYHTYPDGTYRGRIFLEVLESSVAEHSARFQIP

Row | Binder | Kd [1] [nM] | EC50 [2] [µg/mL] | EC50 [3] [µg/mL] | Kd [4] [nM] | Kd [5] [nM] | Kd [6] [nM] | FOB (Fold Over Background) [7] [fold] | FOB (Fold Over Background) [8] [fold] | IC50 (read off the curve) [9] [µg/mL] | IC50 (read off the curve) [10] [µg/mL] | EC50 [11] [µg/mL] | IC50 (read off the curve) [12] [µg/mL] | IC50 (read off the curve) [13] [µg/mL] | EC50 [14] [µg/mL] | Kd [15] [nM]
1 | Clone 16 (antibody, V domains shown, Fully human IgG produced in yeast) VH: QVQLVQSGAEVKKPGSSVKVSCKASGGTFSSYAISWVRQAPGQGLEWMGGIIPIFGTASYAQKFQGRVTITADESTSTAYMELSSLRSEDTAVYYCARQSTWHKLYGTDVWGQGTTVTVSS VL: DIQMTQSPSSVSASVGDRVTITCRASQGISSWLAWYQQKPGKAPKLLIYAASSLQSGVPSRFSGSGSGTDFTLTISSLQPEDFATYYCQQGDSLPPTFGGGTKVEIK | 4.67 | 0.1 | 0.07 | 2.52 | 0.69 | 2.06 | 27 | 192 | – | – | – | – | – | – | –
2 | Clone 13 (antibody, IgG1, V domains shown, also called anti-TIGIT clone 13; c13 hIgG1) VH: QVQLVQSGAEVKKPGSSVKVSCKASGGTFSSYAISWVRQAPGQGLEWMGSIIPIFGTANYAQKFQGRVTITADESTSTAYMELSSLRSEDTAVYYCARGPSEVGAILGYVWFDPWGQGTLVTVSS VL: not shown | 1.04 | 0.1 | 0.07 | 2.63 | 0.543 | 2.56 | 224 | 212 | ~0.1 | ~0.1 | 0.09 | ~0.1 | ~0.1 | 0.13 | –
3 | anti-TIGIT clone 13 mIgG1 (antibody, also called c13 mIgG1; 13-1) heavy: QVQLVQSGAEVKKPGSSVKVSCKASGGTFSSYAISWVRQAPGQGLEWMGSIIPIFGTANYAQKFQGRVTITADESTSTAYMELSSLRSEDTAVYYCARGPSEVGAILGYVWFDPWGQGTLVTVSSAKTTPPSVYPLAPGSAAQTNSMVTLGCLVKGYFPEPVTVTWNSGSLSSGVHTFPAVLESDLYTLSSSVTVPSSPRPSETVTCNVAHPASSTKVDKKIVPRDCGCKPCICTVPEVSSVFIFPPKPKDVLTITLTPKVTCVVVDISKDDPEVQFSWFVDDVEVHTAQTQPREEQFNSTFRSVSELPIMHQDWLNGKEFKCRVNSAAFPAPIEKTISKTKGRPKAPQVYTIPPPKEQMAKDKVSLTCMITDFFPEDITVEWQWNGQPAENYKNTQPIMNTNGSYFVYSKLNVQKSNWEAGNTFTCSVLHEGLHNHHTEKSLSHSPGK light: not shown | – | – | – | – | – | – | – | – | ~0.04 | – | 0.05 | ~0.1 | – | 0.07 | –
4 | Clone 25 (antibody, V domains shown, Fully human IgG produced in yeast; also called anti-TIGIT clone 25) VH: QVQLVQSGAEVKKPGASVKVSCKASGYTFTSYAISWVRQAPGQGLEWMGWISAYNGNTNYAQKLQGRVTMTTDTSTSTAYMELRSLRSDDTAVYYCARDLSSFWSGDVLGAFDIWGQGTMVTVSS VL: DIQMTQSPSSLSASVGDRVTITCRASQSISSYLNWYQQKPGKAPKLLIYAASSLQSGVPSRFSGSGSGTDFTLTISSLQPEDFATYYCQQSVPPRTFGGGTKVEIK | 1.5 | 0.19 | 0.14 | 1.27 | 0.62 | 0.618 | 247 | 205 | – | – | – | – | – | – | –
5 | Clone 54 (antibody, V domains shown, Fully human IgG produced in yeast) VH: QVQLVQSGAEVKKPGASVKVSCKASGYTFTSYYMHWVRQAPGQGLEWMGIINPSGGSTSYAQKFQGRVTMTRDTSTSTVYMELSSLRSEDTAVYYCARASDSYGVGLYYGMDVWGQGTTVTVSS VL: EIVLTQSPGTLSLSPGERATLSCRASQSVRSSYLAWYQQKPGQAPRLLIYGASSRATGIPDRFSGSGSGTDFTLTISRLEPEDFAVYYCQQYYVSPLTFGGGTKVEIK | – | 11.4 | 0.11 | – | 0.689 | 3.49 | – | – | – | – | – | – | – | – | –

Results, then the binder that gave them:

Row | Kd [1] [nM] | EC50 [2] [µg/mL] | EC50 [3] [µg/mL] | Kd [4] [nM] | Kd [5] [nM] | Kd [6] [nM] | FOB (Fold Over Background) [7] [fold] | FOB (Fold Over Background) [8] [fold] | IC50 (read off the curve) [9] [µg/mL] | IC50 (read off the curve) [10] [µg/mL] | EC50 [11] [µg/mL] | IC50 (read off the curve) [12] [µg/mL] | IC50 (read off the curve) [13] [µg/mL] | EC50 [14] [µg/mL] | Kd [15] [nM] | Binder
6 | – | – | – | – | – | – | – | – | – | – | – | – | – | – | 3330 | anti-TIGIT c13 mIgG2a LALA-PG (antibody, also called LALA TIGIT) heavy chain: QVQLVQSGAEVKKPGSSVKVSCKASGGTFSSYAISWVRQAPGQGLEWMGSIIPIFGTANYAQKFQGRVTITADESTSTAYMELSSLRSEDTAVYYCARGPSEVGAILGYVWFDPWGQGTLVTVSSAKTTAPSVYPLAPVCGDTTGSSVTLGCLVKGYFPEPVTLTWNSGSLSSGVHTFPAVLQSDLYTLSSSVTVTSSTWPSQSITCNVAHPASSTKVDKKIEPRGPTIKPCPPCKCPAPNAAGGPSVFIFPPKIKDVLMISLSPIVTCVVVDVSEDDPDVQISWFVNNVEVHTAQTQTHREDYNSTLRVVSALPIQHQDWMSGKEFKCKVNNKDLGAPIERTISKPKGSVRAPQVYVLPPPEEEMTKKQVTLTCMVTDFMPEDIYVEWTNNGKTELNYKNTEPVLDSDGSYFMYSKLRVEKKNWVERNSYSCSVVHEGLHNHHTTKSFSRTPGK light chain: not shown
7 | 1.34 | 0.32 | 0.15 | 8.18 | 0.956 | 10.1 | 162 | 158 | – | – | – | – | – | – | – | Clone 2 (antibody, V domains shown, Fully human IgG produced in yeast; also called anti-TIGIT antibody clone 2) VH: EVQLVESGGGLVQPGGSLRLSCAASGFTFSDHYMDWVRQAPGKGLEWVGRTRNKANSYTTEYAASVKGRFTISRDDSKNSLYLQMNSLKTEDTAVYYCARGQYYYGSSSRGYYYMDVWGQGTTVTVSS VL: EIVLTQSPGTLSLSPGERATLSCRASQSVSSSYLAWYQQKPGQAPRLLIYGASSRATGIPDRFSGSGSGTDFTLTISRLEPEDFAVYYCQQAVPSPLTFGGGTKVEIK
